Reference: publication PMC4912689, “The Extracellular Surface of the GLP-1 Receptor Is a Molecular Trigger for Biased Agonism” (Cell, 2016)

Target: exendin-4, P26349
Test: radioligand inhibition binding (competition with 125I-exendin-4(9-39))
Conditions: chain shown with the change;; read off a plot

Binder | log10 ratio
glucagon-like peptide 1 receptor (GLP-1R), wild-type, P43220 Y289A (protein) RPQGATVSLWETVQKWREYRRQCQRSLTEDPPPATDLFCNRTFDEYACWPDGEPGSFVNVSCPWYLPWASSVPQGHVYRFCTAEGLWLQKDNSSLPWRDLSECEESKRGERSSPEEQLLFLYIIYTVGYALSFSALVIASAILLGFRHLHCTRNYIHLNLFASFILRALSVFIKDAALKWMYSTAAQQHQWDGLLSYQDSLSCRLVFLLMQYCVAANYYWLLVEGVYLYTLLAFSVLSEQWIFRLYVSIGWGVPLLFVVPWGIVKALYEDEGCWTRNSNMNYWLIIRLPILFAIGVNFLIFVRVICIVVSKLKANLMCKTDIKCRLAKSTLTLIPLLGTHEVIFAFVMDEHARGTLRFIKLFTELSFTSFQGLMVAILYCFVNNEVQLEFRKSWERWRLEHLHIQRDSSMKPLKCPTSSLSSGATAGSSMYTATCQASCS | 0 ΔpKi
glucagon-like peptide 1 receptor (GLP-1R), wild-type, P43220 E373A (protein) RPQGATVSLWETVQKWREYRRQCQRSLTEDPPPATDLFCNRTFDEYACWPDGEPGSFVNVSCPWYLPWASSVPQGHVYRFCTAEGLWLQKDNSSLPWRDLSECEESKRGERSSPEEQLLFLYIIYTVGYALSFSALVIASAILLGFRHLHCTRNYIHLNLFASFILRALSVFIKDAALKWMYSTAAQQHQWDGLLSYQDSLSCRLVFLLMQYCVAANYYWLLVEGVYLYTLLAFSVLSEQWIFRLYVSIGWGVPLLFVVPWGIVKYLYEDEGCWTRNSNMNYWLIIRLPILFAIGVNFLIFVRVICIVVSKLKANLMCKTDIKCRLAKSTLTLIPLLGTHEVIFAFVMDAHARGTLRFIKLFTELSFTSFQGLMVAILYCFVNNEVQLEFRKSWERWRLEHLHIQRDSSMKPLKCPTSSLSSGATAGSSMYTATCQASCS | -1.3 ΔpKi
glucagon-like peptide 1 receptor (GLP-1R), wild-type, P43220 G377A (protein) RPQGATVSLWETVQKWREYRRQCQRSLTEDPPPATDLFCNRTFDEYACWPDGEPGSFVNVSCPWYLPWASSVPQGHVYRFCTAEGLWLQKDNSSLPWRDLSECEESKRGERSSPEEQLLFLYIIYTVGYALSFSALVIASAILLGFRHLHCTRNYIHLNLFASFILRALSVFIKDAALKWMYSTAAQQHQWDGLLSYQDSLSCRLVFLLMQYCVAANYYWLLVEGVYLYTLLAFSVLSEQWIFRLYVSIGWGVPLLFVVPWGIVKYLYEDEGCWTRNSNMNYWLIIRLPILFAIGVNFLIFVRVICIVVSKLKANLMCKTDIKCRLAKSTLTLIPLLGTHEVIFAFVMDEHARATLRFIKLFTELSFTSFQGLMVAILYCFVNNEVQLEFRKSWERWRLEHLHIQRDSSMKPLKCPTSSLSSGATAGSSMYTATCQASCS | -0.4 ΔpKi
glucagon-like peptide 1 receptor (GLP-1R), wild-type, P43220 L384A (protein) RPQGATVSLWETVQKWREYRRQCQRSLTEDPPPATDLFCNRTFDEYACWPDGEPGSFVNVSCPWYLPWASSVPQGHVYRFCTAEGLWLQKDNSSLPWRDLSECEESKRGERSSPEEQLLFLYIIYTVGYALSFSALVIASAILLGFRHLHCTRNYIHLNLFASFILRALSVFIKDAALKWMYSTAAQQHQWDGLLSYQDSLSCRLVFLLMQYCVAANYYWLLVEGVYLYTLLAFSVLSEQWIFRLYVSIGWGVPLLFVVPWGIVKYLYEDEGCWTRNSNMNYWLIIRLPILFAIGVNFLIFVRVICIVVSKLKANLMCKTDIKCRLAKSTLTLIPLLGTHEVIFAFVMDEHARGTLRFIKAFTELSFTSFQGLMVAILYCFVNNEVQLEFRKSWERWRLEHLHIQRDSSMKPLKCPTSSLSSGATAGSSMYTATCQASCS | -1.2 ΔpKi
glucagon-like peptide 1 receptor (GLP-1R), wild-type, P43220 L379A (protein) RPQGATVSLWETVQKWREYRRQCQRSLTEDPPPATDLFCNRTFDEYACWPDGEPGSFVNVSCPWYLPWASSVPQGHVYRFCTAEGLWLQKDNSSLPWRDLSECEESKRGERSSPEEQLLFLYIIYTVGYALSFSALVIASAILLGFRHLHCTRNYIHLNLFASFILRALSVFIKDAALKWMYSTAAQQHQWDGLLSYQDSLSCRLVFLLMQYCVAANYYWLLVEGVYLYTLLAFSVLSEQWIFRLYVSIGWGVPLLFVVPWGIVKYLYEDEGCWTRNSNMNYWLIIRLPILFAIGVNFLIFVRVICIVVSKLKANLMCKTDIKCRLAKSTLTLIPLLGTHEVIFAFVMDEHARGTARFIKLFTELSFTSFQGLMVAILYCFVNNEVQLEFRKSWERWRLEHLHIQRDSSMKPLKCPTSSLSSGATAGSSMYTATCQASCS | -0.95 ΔpKi
glucagon-like peptide 1 receptor (GLP-1R), wild-type, P43220 R299A (protein) RPQGATVSLWETVQKWREYRRQCQRSLTEDPPPATDLFCNRTFDEYACWPDGEPGSFVNVSCPWYLPWASSVPQGHVYRFCTAEGLWLQKDNSSLPWRDLSECEESKRGERSSPEEQLLFLYIIYTVGYALSFSALVIASAILLGFRHLHCTRNYIHLNLFASFILRALSVFIKDAALKWMYSTAAQQHQWDGLLSYQDSLSCRLVFLLMQYCVAANYYWLLVEGVYLYTLLAFSVLSEQWIFRLYVSIGWGVPLLFVVPWGIVKYLYEDEGCWTANSNMNYWLIIRLPILFAIGVNFLIFVRVICIVVSKLKANLMCKTDIKCRLAKSTLTLIPLLGTHEVIFAFVMDEHARGTLRFIKLFTELSFTSFQGLMVAILYCFVNNEVQLEFRKSWERWRLEHLHIQRDSSMKPLKCPTSSLSSGATAGSSMYTATCQASCS | -1.5 ΔpKi
glucagon-like peptide 1 receptor (GLP-1R), wild-type, P43220 R376A (protein) RPQGATVSLWETVQKWREYRRQCQRSLTEDPPPATDLFCNRTFDEYACWPDGEPGSFVNVSCPWYLPWASSVPQGHVYRFCTAEGLWLQKDNSSLPWRDLSECEESKRGERSSPEEQLLFLYIIYTVGYALSFSALVIASAILLGFRHLHCTRNYIHLNLFASFILRALSVFIKDAALKWMYSTAAQQHQWDGLLSYQDSLSCRLVFLLMQYCVAANYYWLLVEGVYLYTLLAFSVLSEQWIFRLYVSIGWGVPLLFVVPWGIVKYLYEDEGCWTRNSNMNYWLIIRLPILFAIGVNFLIFVRVICIVVSKLKANLMCKTDIKCRLAKSTLTLIPLLGTHEVIFAFVMDEHAAGTLRFIKLFTELSFTSFQGLMVAILYCFVNNEVQLEFRKSWERWRLEHLHIQRDSSMKPLKCPTSSLSSGATAGSSMYTATCQASCS | -0.35 ΔpKi
glucagon-like peptide 1 receptor (GLP-1R), wild-type, P43220 F385A (protein) RPQGATVSLWETVQKWREYRRQCQRSLTEDPPPATDLFCNRTFDEYACWPDGEPGSFVNVSCPWYLPWASSVPQGHVYRFCTAEGLWLQKDNSSLPWRDLSECEESKRGERSSPEEQLLFLYIIYTVGYALSFSALVIASAILLGFRHLHCTRNYIHLNLFASFILRALSVFIKDAALKWMYSTAAQQHQWDGLLSYQDSLSCRLVFLLMQYCVAANYYWLLVEGVYLYTLLAFSVLSEQWIFRLYVSIGWGVPLLFVVPWGIVKYLYEDEGCWTRNSNMNYWLIIRLPILFAIGVNFLIFVRVICIVVSKLKANLMCKTDIKCRLAKSTLTLIPLLGTHEVIFAFVMDEHARGTLRFIKLATELSFTSFQGLMVAILYCFVNNEVQLEFRKSWERWRLEHLHIQRDSSMKPLKCPTSSLSSGATAGSSMYTATCQASCS | -0.2 ΔpKi
glucagon-like peptide 1 receptor (GLP-1R), wild-type, P43220 W214A (protein) RPQGATVSLWETVQKWREYRRQCQRSLTEDPPPATDLFCNRTFDEYACWPDGEPGSFVNVSCPWYLPWASSVPQGHVYRFCTAEGLWLQKDNSSLPWRDLSECEESKRGERSSPEEQLLFLYIIYTVGYALSFSALVIASAILLGFRHLHCTRNYIHLNLFASFILRALSVFIKDAALKWMYSTAAQQHQADGLLSYQDSLSCRLVFLLMQYCVAANYYWLLVEGVYLYTLLAFSVLSEQWIFRLYVSIGWGVPLLFVVPWGIVKYLYEDEGCWTRNSNMNYWLIIRLPILFAIGVNFLIFVRVICIVVSKLKANLMCKTDIKCRLAKSTLTLIPLLGTHEVIFAFVMDEHARGTLRFIKLFTELSFTSFQGLMVAILYCFVNNEVQLEFRKSWERWRLEHLHIQRDSSMKPLKCPTSSLSSGATAGSSMYTATCQASCS | -0.25 ΔpKi
glucagon-like peptide 1 receptor (GLP-1R), wild-type, P43220 L217A (protein) RPQGATVSLWETVQKWREYRRQCQRSLTEDPPPATDLFCNRTFDEYACWPDGEPGSFVNVSCPWYLPWASSVPQGHVYRFCTAEGLWLQKDNSSLPWRDLSECEESKRGERSSPEEQLLFLYIIYTVGYALSFSALVIASAILLGFRHLHCTRNYIHLNLFASFILRALSVFIKDAALKWMYSTAAQQHQWDGALSYQDSLSCRLVFLLMQYCVAANYYWLLVEGVYLYTLLAFSVLSEQWIFRLYVSIGWGVPLLFVVPWGIVKYLYEDEGCWTRNSNMNYWLIIRLPILFAIGVNFLIFVRVICIVVSKLKANLMCKTDIKCRLAKSTLTLIPLLGTHEVIFAFVMDEHARGTLRFIKLFTELSFTSFQGLMVAILYCFVNNEVQLEFRKSWERWRLEHLHIQRDSSMKPLKCPTSSLSSGATAGSSMYTATCQASCS | -0.3 ΔpKi
glucagon-like peptide 1 receptor (GLP-1R), wild-type, P43220 C296A (protein) RPQGATVSLWETVQKWREYRRQCQRSLTEDPPPATDLFCNRTFDEYACWPDGEPGSFVNVSCPWYLPWASSVPQGHVYRFCTAEGLWLQKDNSSLPWRDLSECEESKRGERSSPEEQLLFLYIIYTVGYALSFSALVIASAILLGFRHLHCTRNYIHLNLFASFILRALSVFIKDAALKWMYSTAAQQHQWDGLLSYQDSLSCRLVFLLMQYCVAANYYWLLVEGVYLYTLLAFSVLSEQWIFRLYVSIGWGVPLLFVVPWGIVKYLYEDEGAWTRNSNMNYWLIIRLPILFAIGVNFLIFVRVICIVVSKLKANLMCKTDIKCRLAKSTLTLIPLLGTHEVIFAFVMDEHARGTLRFIKLFTELSFTSFQGLMVAILYCFVNNEVQLEFRKSWERWRLEHLHIQRDSSMKPLKCPTSSLSSGATAGSSMYTATCQASCS | -1.8 ΔpKi
glucagon-like peptide 1 receptor (GLP-1R), wild-type, P43220 S301A (protein) RPQGATVSLWETVQKWREYRRQCQRSLTEDPPPATDLFCNRTFDEYACWPDGEPGSFVNVSCPWYLPWASSVPQGHVYRFCTAEGLWLQKDNSSLPWRDLSECEESKRGERSSPEEQLLFLYIIYTVGYALSFSALVIASAILLGFRHLHCTRNYIHLNLFASFILRALSVFIKDAALKWMYSTAAQQHQWDGLLSYQDSLSCRLVFLLMQYCVAANYYWLLVEGVYLYTLLAFSVLSEQWIFRLYVSIGWGVPLLFVVPWGIVKYLYEDEGCWTRNANMNYWLIIRLPILFAIGVNFLIFVRVICIVVSKLKANLMCKTDIKCRLAKSTLTLIPLLGTHEVIFAFVMDEHARGTLRFIKLFTELSFTSFQGLMVAILYCFVNNEVQLEFRKSWERWRLEHLHIQRDSSMKPLKCPTSSLSSGATAGSSMYTATCQASCS | -0.3 ΔpKi
glucagon-like peptide 1 receptor (GLP-1R), wild-type, P43220 T378A (protein) RPQGATVSLWETVQKWREYRRQCQRSLTEDPPPATDLFCNRTFDEYACWPDGEPGSFVNVSCPWYLPWASSVPQGHVYRFCTAEGLWLQKDNSSLPWRDLSECEESKRGERSSPEEQLLFLYIIYTVGYALSFSALVIASAILLGFRHLHCTRNYIHLNLFASFILRALSVFIKDAALKWMYSTAAQQHQWDGLLSYQDSLSCRLVFLLMQYCVAANYYWLLVEGVYLYTLLAFSVLSEQWIFRLYVSIGWGVPLLFVVPWGIVKYLYEDEGCWTRNSNMNYWLIIRLPILFAIGVNFLIFVRVICIVVSKLKANLMCKTDIKCRLAKSTLTLIPLLGTHEVIFAFVMDEHARGALRFIKLFTELSFTSFQGLMVAILYCFVNNEVQLEFRKSWERWRLEHLHIQRDSSMKPLKCPTSSLSSGATAGSSMYTATCQASCS | -0.5 ΔpKi
